According to patent US9958461B2, “Detection of protein to protein interactions” (THE GOVERNING COUNCIL OF THE UNIVERSITY OF TORONTO, priority 2013, dated 2018):

Experiments:
[1] = test system: EGFR-ex19del; test: Western blot of EGFR-ex19del bait phosphorylation after erlotinib (anti-phospho-EGFR); settings: 0, 250 or 500 nM Erlotinib, 20 h, serum-containing media
From the text: (a) Left panel: Relative luciferase activity of stable 5×GAL4UAS-HEK293T luciferase reporter cells co-transfected with various oncogenic ErbB baits and Shc1 prey. […] (b) Luciferase activity of sable 5×GAL4UAS-HEK293T luciferase reporter cells co-transfected with EGFR-Wt, EGFR-L858R or EGFR-D855A-kinase dead baits and Shc1 adaptor prey. (c)-(d) Western Blot showing expression of various receptors using anti-V5 antibodies and phosphor-tyrosine-specific antibodies. […] (h) Western Blot analysis of EGFR-Wt, EGFR-L858R, EGFR-exon19de and EGFR-L858R/T790A baits transfected into stable5×GAL4UAS-luciferase HEK293T reporter cells in serum-containing media.
Western blot analysis was performed using standard protocols. Briefly, cells were either directly harvested in 2×sample buffer or harvested in 1×reporter lysis buffer (Promega) containing protease inhibitors (Complete-EDTA, Roche) and 2×sample buffer was added after freezing the cells at −80° C. For phospho-specific antibodies, cells were lysed in Ripa buffer containing Na-orthovanadate, PMSF and protease inhibitor and 2×SB was added and samples were immediately boiled at 95° C. for 5 min and proceeded for Western Blot analysis. […] Transferred samples were immunoblotted with primary antibodies, followed by incubation with HRP-coupled secondary antibodies, and detection was performed using GE-Healthcare enhanced luminescence. […]

[2] = target: T1, ErbB4/Shc1 interaction (Homo sapiens, UniProt Q15303); test: MaMTH luciferase reporter assay, ErbB4 bait / Shc1 prey with TKI-PD158780; format: cell-based; settings: presence/absence of TKI-PD158780
T1 construct: with the advantage of testing full-length integral membrane proteins; (GGGGS)2 linker-Cub (human ubiquitin aa 35-76)-transcription factor (GAL4-mNFkB or mLexA-VP16; expressed in transfected cells; HEK293T reporter lines are used throughout)
T1 sequence (Q15303 26-1308): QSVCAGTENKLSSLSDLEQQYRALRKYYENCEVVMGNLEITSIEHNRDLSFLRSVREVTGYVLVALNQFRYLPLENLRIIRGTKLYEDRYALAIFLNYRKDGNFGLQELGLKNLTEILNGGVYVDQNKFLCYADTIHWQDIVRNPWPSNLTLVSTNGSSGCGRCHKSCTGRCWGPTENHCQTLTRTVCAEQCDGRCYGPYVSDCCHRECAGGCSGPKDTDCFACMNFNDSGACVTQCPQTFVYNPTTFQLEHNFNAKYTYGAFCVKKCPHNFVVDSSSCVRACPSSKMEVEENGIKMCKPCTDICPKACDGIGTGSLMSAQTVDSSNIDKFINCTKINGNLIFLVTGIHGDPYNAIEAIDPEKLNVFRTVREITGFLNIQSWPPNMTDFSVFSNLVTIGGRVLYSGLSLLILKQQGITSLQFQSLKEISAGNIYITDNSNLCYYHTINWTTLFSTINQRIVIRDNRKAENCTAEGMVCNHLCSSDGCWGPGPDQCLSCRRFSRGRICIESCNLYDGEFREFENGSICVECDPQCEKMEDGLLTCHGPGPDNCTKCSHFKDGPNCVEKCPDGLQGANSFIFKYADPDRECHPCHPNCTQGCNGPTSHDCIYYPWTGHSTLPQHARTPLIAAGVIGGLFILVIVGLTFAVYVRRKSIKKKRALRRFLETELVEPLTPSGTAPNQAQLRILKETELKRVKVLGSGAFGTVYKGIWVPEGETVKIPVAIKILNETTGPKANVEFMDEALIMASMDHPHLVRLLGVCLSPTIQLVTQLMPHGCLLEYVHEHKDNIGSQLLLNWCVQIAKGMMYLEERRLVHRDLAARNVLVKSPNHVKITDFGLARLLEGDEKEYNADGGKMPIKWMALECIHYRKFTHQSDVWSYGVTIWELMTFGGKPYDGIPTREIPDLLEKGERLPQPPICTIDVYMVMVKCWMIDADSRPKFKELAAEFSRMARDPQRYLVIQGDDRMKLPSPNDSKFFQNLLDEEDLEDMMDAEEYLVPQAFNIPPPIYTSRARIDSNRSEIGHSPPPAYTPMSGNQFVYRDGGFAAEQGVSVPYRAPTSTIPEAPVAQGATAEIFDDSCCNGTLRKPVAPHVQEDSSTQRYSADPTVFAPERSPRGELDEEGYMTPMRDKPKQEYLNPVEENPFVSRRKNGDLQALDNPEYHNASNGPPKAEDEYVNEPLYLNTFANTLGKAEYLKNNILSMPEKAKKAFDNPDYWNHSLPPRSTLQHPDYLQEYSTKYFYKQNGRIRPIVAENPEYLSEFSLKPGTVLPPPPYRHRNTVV
Protocol: FIG. 7: (a) Graph illustrating relative lucifease activity of serum stimulated PPIs. Stable 5×GAL4UAS-luciferase reporter cell lines were co-transfected with ErbB2 bait and preys. Luciferase activity was measured 24 h following transfection in the absence/presence of serum. […] The plotted values represent relative-luciferase signals calculated as fold-change increase above averaged negative controls. (b) Graph illustrating relative luciferase activity of drug-inhibited protein-protein interactions. Following transfection, ErbB4 interaction with either Shc1 or non-interacting Pex13 was measured in presence/absence of non-specfic TKI-PD158780. Plotted values represent relative luciferase signals calculated as fold-change increase above bait only controls.
We then sought to more specifically focus on the ErbB subfamily of receptor tyrosine kinases (RTK) to investigate ligand-dependent and drug-inhibited interactions. The ErbB family consists of 4 closely related receptors: EGFR, ErbB2, ErbB3, and ErbB4. Elucidation of cell signaling via all four ErbB receptors is of great therapeutic interest since they are frequently found mutated or overexpressed in several cancer. […]

[3] = target: T2, EGFR-L858R (Homo sapiens, UniProt P00533, L858R); test: MaMTH EGFR-interactor screen, lentiviral preys against EGFR-L858R bait (interaction score); format: cell-based; settings: MaMTH interaction score of prey with EGFR-L858R bait
T2 construct: with the advantage of testing full-length integral membrane proteins; (GGGGS)2 linker-Cub (human ubiquitin aa 35-76)-GAL4(1-147)-mNFkB(364-550) (C); expressed in transfected cells
Protocol: (§1) After lentivirus harvest, target cells (stable 5×GAL4UAS-luciferase reporter-HEK293T cells) were infected at a multiplicity of infection (MOI) of around 0.3-0.4 to ensure single copy integration per cell. Cells were selected in puromycin for at least 48 h and transfected with either EGFR-wildtype or EGFR-L858R baits in triplicates. 24 h after transfection, cells were lysed and luciferase assays performed. On each set of interaction assays, various negative controls were included. To calculate a MaMTH-interaction scores, negative controls were averaged and the fold-change of luciferase activity compared to the averaged controls was calculated and defined as the interaction score.
(§2) Each set of experiments contains a defined set of negative controls in at least three replicates. Negative controls were chosen as such that there is a range of controls showing high-background luciferase activity (normally cytosolic proteins: Fabp5, Pex19) as well as medium-background luciferase activity (membrane-bound interactors: Pex7, GABBR2). Negative controls were averaged and the fold-change of luciferase activity was calculated. Using this method, we have a stringent cut-off and chose an interaction score >1 to be interacting proteins.
(§3) Our cut-off of 1 is based on fold-change difference in luciferase activity over averaged negative controls. Negative controls include cytosolic preys (which tend to promiscuously bind to many proteins), plasma membrane- and peroxisomal-prey proteins. In general, we chose stringent conditions by testing preys that tend to have high luciferase background with any bait tested, in order to generate high-confidence interaction data. […] Phosphorylated tyrosine residues on the receptor are typically docking sites for downstream cytoplasmic targets and recognized through SH2 or PTB domains^43.

[4] = target: T3, EGFR-Wt (Homo sapiens, UniProt P00533); test: MaMTH EGFR-interactor screen, lentiviral preys against EGFR-wildtype bait (interaction score); format: cell-based; settings: MaMTH interaction score of prey with EGFR-Wt bait, mean
T3 construct: with the advantage of testing full-length integral membrane proteins; (GGGGS)2 linker-Cub (human ubiquitin aa 35-76)-GAL4(1-147)-mNFkB(364-550) (C); expressed in transfected cells
Protocol: as §1, §2, §3

[5] = test system: EGFR-Wt; test: as above; format: cell-based, human; settings: ratio of EGFR-Wt mean to EGFR-L858R mean interaction score
Protocol: as §1, §2, §3

With `C#Cc1cccc(Nc2ncnc3cc(OCCOC)c(OCCOC)cc23)c1` [Erlotinib] the “Receptor phosphorylation upon Erlotinib treatment (Western blot)” value [1] was “sensitive to Erlotinib”.
`CNc1cc2c(Nc3cccc(Br)c3)ncnc2cn1` [TKI-PD158780] was tested, and the “Effect on Shc1-adaptor protein binding to ErbB4” value [2] was “reduced Shc1-adaptor protein binding”.
In the case of ABL1, the EGFR-L858R mean [3] is reported as 0.50, the EGFR-Wt mean [4] is reported as 1.89 and the Wt/L858R [5] is reported as 3.76.
AKT1 was tested, and the EGFR-L858R mean [3] was 3.11, the EGFR-Wt mean [4] was 4.12 and the Wt/L858R [5] was 1.32.
Compound APP has an EGFR-L858R mean [3] of 2.18, an EGFR-Wt mean [4] of 0.93 and a Wt/L858R [5] of 0.43.
ARRB1 gave an EGFR-L858R mean [3] of 6.57, an EGFR-Wt mean [4] of 2.72 and a Wt/L858R [5] of 0.41.
In the case of ASAP2, the EGFR-L858R mean [3] is reported as 0.97, the EGFR-Wt mean [4] is reported as 1.77 and the Wt/L858R [5] is reported as 1.81.
For BLK, the EGFR-L858R mean [3] was 8.25, the EGFR-Wt mean [4] was 4.51 and the Wt/L858R [5] was 0.55.
Compound CD3E has an EGFR-L858R mean [3] of 0.76, an EGFR-Wt mean [4] of 1.39 and a Wt/L858R [5] of 1.83.
With CD33 the EGFR-L858R mean [3] was 1.24, the EGFR-Wt mean [4] was 0.37 and the Wt/L858R [5] was 0.30.
DOK6 was tested, and the EGFR-L858R mean [3] was 1.32, the EGFR-Wt mean [4] was 1.22 and the Wt/L858R [5] was 0.92.
For EZR, the EGFR-L858R mean [3] was 5.00, the EGFR-Wt mean [4] was 8.30 and the Wt/L858R [5] was 1.66.
Work on FASLG yielded an EGFR-L858R mean [3] of 1.15, an EGFR-Wt mean [4] of 0.85 and a Wt/L858R [5] of 0.74.
Work on FGR yielded an EGFR-L858R mean [3] of 4.99, an EGFR-Wt mean [4] of 2.62 and a Wt/L858R [5] of 0.52.
With FRK the EGFR-L858R mean [3] was 5.36, the EGFR-Wt mean [4] was 2.84 and the Wt/L858R [5] was 0.53.
GAB2 showed an EGFR-L858R mean [3] of 1.27, an EGFR-Wt mean [4] of 0.97 and a Wt/L858R [5] of 0.76.
Gapdh showed an EGFR-L858R mean [3] of 3.79, an EGFR-Wt mean [4] of 3.44 and a Wt/L858R [5] of 0.91.
For Grb2, the Wt/L858R [5] was 0.28.
Work on HCK yielded an EGFR-L858R mean [3] of 3.96, an EGFR-Wt mean [4] of 3.94 and a Wt/L858R [5] of 1.00.
HDAC6 showed an EGFR-L858R mean [3] of 14.90, an EGFR-Wt mean [4] of 24.86 and a Wt/L858R [5] of 1.67.
HSP90AB1 gave an EGFR-L858R mean [3] of 14.81, an EGFR-Wt mean [4] of 27.58 and a Wt/L858R [5] of 1.86.
With HSPA1A the EGFR-L858R mean [3] was 19.20, the EGFR-Wt mean [4] was 12.77 and the Wt/L858R [5] was 0.67.
For HSPA8, the EGFR-L858R mean [3] was 39.20, the EGFR-Wt mean [4] was 25.00 and the Wt/L858R [5] was 0.64.
Hsp90aa1 showed an EGFR-L858R mean [3] of 97.06, an EGFR-Wt mean [4] of 74.20 and a Wt/L858R [5] of 0.76.
For IKBKG, the EGFR-L858R mean [3] was 6.55, the EGFR-Wt mean [4] was 8.28 and the Wt/L858R [5] was 1.26.
In the case of ITGB2, the EGFR-L858R mean [3] is reported as 0.83, the EGFR-Wt mean [4] is reported as 2.62 and the Wt/L858R [5] is reported as 3.16.
Work on ITSN2 yielded an EGFR-L858R mean [3] of 0.60, an EGFR-Wt mean [4] of 2.09 and a Wt/L858R [5] of 3.50.
MAP4K1 was tested, and the EGFR-L858R mean [3] was 1.76, the EGFR-Wt mean [4] was 1.51 and the Wt/L858R [5] was 0.86.
Work on MAPK9 yielded an EGFR-L858R mean [3] of 2.83, an EGFR-Wt mean [4] of 1.48 and a Wt/L858R [5] of 0.52.
For MUC1, the EGFR-L858R mean [3] was 4.18, the EGFR-Wt mean [4] was 1.09 and the Wt/L858R [5] was 0.26.
NCK2 gave an EGFR-L858R mean [3] of 4.87, an EGFR-Wt mean [4] of 4.35 and a Wt/L858R [5] of 0.89.
For NR3C1, the EGFR-L858R mean [3] was 2.59, the EGFR-Wt mean [4] was 3.21 and the Wt/L858R [5] was 1.24.
NTRK2 gave an EGFR-L858R mean [3] of 0.97, an EGFR-Wt mean [4] of 1.57 and a Wt/L858R [5] of 1.61.
Work on PIK3C2B yielded an EGFR-L858R mean [3] of 4.30, an EGFR-Wt mean [4] of 1.23 and a Wt/L858R [5] of 0.29.
PIK3R2 was tested, and the EGFR-L858R mean [3] was 3.25, the EGFR-Wt mean [4] was 1.17 and the Wt/L858R [5] was 0.36.
In the case of PIK3R3, the EGFR-L858R mean [3] is reported as 2.40, the EGFR-Wt mean [4] is reported as 1.55 and the Wt/L858R [5] is reported as 0.64.
For PIM1, the EGFR-L858R mean [3] was 1.51, the EGFR-Wt mean [4] was 1.91 and the Wt/L858R [5] was 1.27.
Work on PRKCA yielded an EGFR-L858R mean [3] of 7.70, an EGFR-Wt mean [4] of 11.13 and a Wt/L858R [5] of 1.45.
In the case of PTPN1, the EGFR-L858R mean [3] is reported as 55.90, the EGFR-Wt mean [4] is reported as 44.56 and the Wt/L858R [5] is reported as 0.80.
In the case of PTPN6, the EGFR-L858R mean [3] is reported as 1.43, the EGFR-Wt mean [4] is reported as 1.51 and the Wt/L858R [5] is reported as 1.05.
RELA gave an EGFR-L858R mean [3] of 1.18, an EGFR-Wt mean [4] of 1.27 and a Wt/L858R [5] of 1.08.
Rgs4 gave an EGFR-L858R mean [3] of 1.39, an EGFR-Wt mean [4] of 0.58 and a Wt/L858R [5] of 0.41.
Work on S100A4 yielded an EGFR-L858R mean [3] of 4.46, an EGFR-Wt mean [4] of 1.72 and a Wt/L858R [5] of 0.39.
SFN showed an EGFR-L858R mean [3] of 14.70, an EGFR-Wt mean [4] of 5.60 and a Wt/L858R [5] of 0.38.
In the case of SH2B1, the EGFR-L858R mean [3] is reported as 3.76, the EGFR-Wt mean [4] is reported as 2.99 and the Wt/L858R [5] is reported as 0.79.
In the case of SOCS3, the EGFR-L858R mean [3] is reported as 9.83, the EGFR-Wt mean [4] is reported as 1.59 and the Wt/L858R [5] is reported as 0.16.
Compound STAT2 has an EGFR-L858R mean [3] of 3.03, an EGFR-Wt mean [4] of 0.84 and a Wt/L858R [5] of 0.28.
In the case of STAT3, the EGFR-L858R mean [3] is reported as 4.20, the EGFR-Wt mean [4] is reported as 7.35 and the Wt/L858R [5] is reported as 1.75.
STUB1 gave an EGFR-L858R mean [3] of 7.04, an EGFR-Wt mean [4] of 10.28 and a Wt/L858R [5] of 1.46.
TGFA was tested, and the EGFR-L858R mean [3] was 1.59, the EGFR-Wt mean [4] was 2.52 and the Wt/L858R [5] was 1.59.
Compound TLR2 has an EGFR-L858R mean [3] of 1.69, an EGFR-Wt mean [4] of 0.58 and a Wt/L858R [5] of 0.34.
TRAF2 showed an EGFR-L858R mean [3] of 3.47, an EGFR-Wt mean [4] of 7.28 and a Wt/L858R [5] of 2.10.
YES1 gave an EGFR-L858R mean [3] of 1.23, an EGFR-Wt mean [4] of 1.91 and a Wt/L858R [5] of 1.55.
YWHAB gave an EGFR-L858R mean [3] of 10.44, an EGFR-Wt mean [4] of 7.39 and a Wt/L858R [5] of 0.71.
With YWHAG the EGFR-L858R mean [3] was 1.42, the EGFR-Wt mean [4] was 1.32 and the Wt/L858R [5] was 0.93.
For YWHAQ, the EGFR-L858R mean [3] was 11.96, the EGFR-Wt mean [4] was 8.19 and the Wt/L858R [5] was 0.69.
With YWHAZ the EGFR-L858R mean [3] was 13.94, the EGFR-Wt mean [4] was 7.58 and the Wt/L858R [5] was 0.54.
